# Source: US11739132B2, “Separation moieties and methods of use thereof” (Werewolf Therapeutics, Inc., priority 2019, dated 2023)
# B1: ACP04: human p40-murine p35-6xHis (protein)
# chain: IWELKKDVYVVELDWYPDAPGEMVVLTCDTPEEDGITWTLDQSSEVLGSGKTLTIQVKEFGDAGQYTCHKGGEVLSHSLLLLHKKEDGIWSTDILKDQKEPKNKTFLRCEAKNYSGRFTCWWLTTISTDLTFSVKSSRGSSDPQGVTCGAATLSAERVRGDNKEYEYSVECQEDSACPAAEESLPIEVMVDAVHKLKYENYTSSFFIRDIIKPDPPKNLQLKPLKNSRQVEVSWEYPDTWSTPHSYFSLTFCVQVQGKSKREKKDRVFTDKTSATVICRKNASISVRAQDRYYSSSWSEWASVPCSGGGGSGGGGSGGGGSRVIPVSGPARCLSQSRNLLKTTDDMVKTAREKLKHYSCTAEDIDHEDITRDQTSTLKTCLPLELHKNESCLATRETSSTTRGSCLPPQKTSLMMTLCLGSIYEDLKMYQTEFQAINAALQNHNHQQIILDKGMLVAIDELMQSLNHNGETLRQKPPVGEADPYRVKMKLCILLHAFSTRVVTINRVMGYLSSAHHHHHH
# Test system: MC38 tumor cells
# Assay: MC38 tumor model, IFNα and IL-12 fusion proteins (Example 27C)
# Assay type: in vivo, C57BL/6 mice
# Conditions: ACP31 33-330 μg, ACP11 17.5-525 μg, ACP04 2 and 10 μg
# Method: The MC38 cell line, a rapidly growing colon adenocarcinoma cell line that expresses MMP9 in vitro, was used. Using this tumor model, the ability of fusion proteins to affect tumor growth was examined.
# Mice were anaesthetized with isoflurane for implant of cells to reduce the ulcerations. 308 CR female C57BL/6 mice were set up with 5×10^5 MC38 tumor cells in 0% Matrigel sc in flank. Cell Injection Volume was 0.1 mL/mouse. Mouse age at start date was 8 to 12 weeks. Pair matches were performed when tumors reach an average size of 100-150 mm^3 and begin treatment. Body weights were taken at initiation and then biweekly to the end. Caliper measurements were taken biweekly to the end. Any adverse reactions were to be reported immediately. […] Within a group with >20% weight loss, individuals hitting the individual body weight loss endpoint were euthanized. If the group treatment related body weight loss is recovered to within 10% of the original weights, dosing resumed at a lower dose or less frequent dosing schedule. Exceptions to non-treatment body weight % recovery were allowed on a case-by-case basis. […] Animals were monitored individually. […]
# No compounds in salt form were used. […] The amount needed per week was calculated, aliquoted accordingly, and stored at −20 C. […]
# For ACP11, ACP31, ACP131, the amount needed per week was calculated, aliquoted accordingly, and stored at −20 C. […]
molecule,measurement,value
B1,Tumor volume over time,tumor volume decreasing over time in a dose-dependent manner
